Results from publication PMC9834221, “TLR3 forms a laterally aligned multimeric complex along double-stranded RNA for efficient signal transduction”.
Changes are numbered by the printed parent chain.

T1: TLR3 ectodomain WT (mouse, UniProt Q99MB1 26-705)
T1 sequence: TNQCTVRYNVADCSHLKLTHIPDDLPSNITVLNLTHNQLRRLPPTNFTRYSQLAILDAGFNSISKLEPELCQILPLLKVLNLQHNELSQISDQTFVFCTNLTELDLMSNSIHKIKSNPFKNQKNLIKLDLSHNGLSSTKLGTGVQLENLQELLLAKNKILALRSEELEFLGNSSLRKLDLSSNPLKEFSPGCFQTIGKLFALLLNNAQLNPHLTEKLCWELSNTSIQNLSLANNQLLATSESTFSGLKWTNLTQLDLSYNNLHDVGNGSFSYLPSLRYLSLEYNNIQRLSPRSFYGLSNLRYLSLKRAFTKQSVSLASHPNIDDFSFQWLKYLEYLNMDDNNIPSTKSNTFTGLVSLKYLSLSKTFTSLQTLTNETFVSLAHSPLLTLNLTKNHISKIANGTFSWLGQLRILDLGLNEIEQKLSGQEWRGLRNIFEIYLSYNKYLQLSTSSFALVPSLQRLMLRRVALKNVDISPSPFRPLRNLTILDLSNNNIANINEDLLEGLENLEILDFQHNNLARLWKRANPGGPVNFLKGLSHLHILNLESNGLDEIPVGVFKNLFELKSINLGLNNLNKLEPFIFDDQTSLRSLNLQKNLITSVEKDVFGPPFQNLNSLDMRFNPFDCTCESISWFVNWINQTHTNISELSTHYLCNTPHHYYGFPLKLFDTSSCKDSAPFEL

T2: TLR3 ectodomain Mut10 (mouse, UniProt Q99MB1 26-705, S116E;Q118E;K138E;K140E;N142E;K145E;N146E)
T2 sequence: T1 sequence with S91E, Q93E, K113E, K115E, N117E, K120E, N121E

B1: 90 bp dsRNA (dsRNA)
RNA 1: AUUCUGCGGAUUAUUUGGCAAAGGAAGCAUUGACACAUGCGCCAAUUCUGCGGAUUAUUUGGCAAAGGAAGCAUUGACACAUGCGCCAAU
RNA 2: AUUGGCGCAUGUGUCAAUGCUUCCUUUGCCAAAUAAUCCGCAGAAUUGGCGCAUGUGUCAAUGCUUCCUUUGCCAAAUAAUCCGCAGAAU
modifications: 2'-O-methyl at strand 1 positions 10-15 and 80-85 (lower case); complement modifications not stated
B2: 46 bp dsRNA (dsRNA)
RNA 1: AUUCUGCGGAUUAUUUGGCAAAGGAAGCAUUGACACAUGCGCCAAU
RNA 2: AUUGGCGCAUGUGUCAAUGCUUCCUUUGCCAAAUAAUCCGCAGAAU
modifications: 2'-O-methyl at strand 1 positions 10-15 and 36-41 (lower case); complement modifications not stated

How the values were obtained:
[1] = biological target: T1, TLR3 ectodomain WT; test: cryo-EM structure; two TLR3 dimers laterally aligned along dsRNA; Protein in 25 mM MES-NaOH pH 5.3, 0.2-0.3 M NaCl (purification buffer); complex formation conditions not in the material; conditions: protein: recombinant; tags: C-terminal FLAG-His6; chain copies: 4; blunt
[2] = biological target: T2, TLR3 ectodomain Mut10; test: cryo-EM 3D reconstruction; dimer identical to WT; Protein in 25 mM MES-NaOH pH 5.3, 0.2-0.3 M NaCl (purification buffer); complex formation conditions not in the material; conditions: protein: recombinant; tags: C-terminal FLAG-His6; chain copies: 2; blunt

Row | Binder | binding result [1] | binding result [2]
1 | B1 | binds | 
2 | B2 |  | binds
